Laboratory results reported in publication PMC9457990, “Evolution of Interferon-Gamma Aptamer with Good Affinity and Analytical Utility by a Rational In Silico Base Mutagenesis Post-SELEX Strategy”.
Substitutions are numbered along the chain they refer to.

B1: B1-4 (ssDNA)
DNA: CCGCCCAAATCCCTAAGAGAAGACTGTAATGACATCAAACCAGACACACTACACACGCA
B2: M5-5 (ssDNA)
DNA: B1 DNA with T14G, A18G, C24G, A34G, C49T
B3: M1-8 (ssDNA)
DNA: B1 DNA with A18G
B4: M3-6 (ssDNA)
DNA: B1 DNA with A18T, T27G, A44T
B5: M2-6 (ssDNA)
DNA: B1 DNA with A18G, C49T
B6: M4-10 (ssDNA)
DNA: B1 DNA with A18T, T27G, A29T, A44T

Molecular target: interferon-gamma (IFN-γ) (Homo sapiens, UniProt P01579 24-161)
Experiment: BLI; PBS pH 7.4, 25 °C; BLI on SA sensors with 500 nM biotinylated aptamer loaded, IFN-γ 125-2000 nM; fluorescence assay in PBS, 250 nM M5-5, MB 1:3, 30 min at 25 °C
Conditions: protein: commercial; chain copies: 2; label: biotin (BLI)

Sequence of interferon-gamma (IFN-γ) (P01579 24-161): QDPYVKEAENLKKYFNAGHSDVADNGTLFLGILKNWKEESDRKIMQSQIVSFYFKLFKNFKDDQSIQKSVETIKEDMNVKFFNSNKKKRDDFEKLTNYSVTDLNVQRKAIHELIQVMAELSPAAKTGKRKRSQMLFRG

Binder	Kd [nM]
B1	914
B2	106
B3	440
B4	267
B5	482
B6	277
